Data on 4 substances can be found in PMC6487837.

A short description of this data set: confocal microscopy, plasma membrane localisation, HT1080 and HL-1 cells. To be noted: glycan lost; control: wild-type DSC2-eYFP.
Take Desmocollin-2 (DSC2): p.N166Q: the localisation_or_trafficking entry is “no change”. Desmocollin-2 (DSC2): p.N546Q: the localisation_or_trafficking entry is on record as “no change”. Turning to Desmocollin-2 (DSC2): p.N629Q, the localisation_or_trafficking entry was “no change”. As for Desmocollin-2 (DSC2): p.N392Q, the localisation_or_trafficking entry is “no change”.
